From EP4454706A1 (Universität Stuttgart, dated 2024)
Where a chain is given by its changes, count along the chain named. Names may count otherwise. One block for each binder: values may come before it.

Key:
[1] = target: T1, EGFR-His fusion protein comprising the extracellular domain (aa 25 - 645) of human EGFR (human, UniProt P00533 25-645); experiment: ELISA, coated EGFR-His
T1 construct: also called His-tagged extracellular domain of EGFR wt

[2] = target: T2, EGFR-moIgG2a-Fc fusion protein comprising the extracellular domain (aa 25 - 645) of human EGFR (human); experiment: ELISA, coated EGFR-moIgG2a-Fc
T2 construct: also called EGFR wt

[3] = target: T3, His-tagged extracellular domain of EGFR comprising the mutation V441D (human, UniProt P00533 25-645); experiment: BLI (Octet), Fab on FAB2G sensor, EGFR-His in solution
T3 construct: See m46; also called V441D (BLI antigen)

[4] = target: T4, His-tagged extracellular domain of EGFR comprising the mutation S464L (human, UniProt P00533 25-645); experiment: as above
T4 construct: See m46; also called S464L (BLI antigen)

[5] = target: T5, His-tagged extracellular domain of EGFR comprising the mutation S492R (human, UniProt P00533 25-645); experiment: as above
T5 construct: See m46; also called S492R (BLI antigen)

[6] = target: T1, EGFR-His fusion protein comprising the …; experiment: as above
[7] = target: T6, His-tagged extracellular domain of EGFR comprising the mutation G465R (human, UniProt P00533 25-645); experiment: as above
T6 construct: See m46; also called G465R (BLI antigen)

[8] = target: T7, human EGFR (aa 1 - 1,210), on cells (human, UniProt P00533 25-1210); experiment: flow cytometry, FaDu cells
T7 construct: also called EGFR wt; NIH-3T3 + EGFR wt

[9] = target: T7, human EGFR (aa 1 - 1,210), on cells; experiment: flow cytometry, DiFi cells
[10] = target: T1, EGFR-His fusion protein comprising the …; experiment: ELISA, coated EGFR-His; remark: listed apart in the source
[11] = target: T8, EGFR-His fusion protein comprising the extracellular domain of murine EGFR (aa 25 - 647) (murine, UniProt Q01279 25-647); experiment: ELISA, coated murine EGFR-His
T8 construct: Bought protein; also called mouse EGFR; Sino Biological 51091-M08H

[12] = target: T7, human EGFR (aa 1 - 1,210), on cells; experiment: flow cytometry, A431 cells
[13] = target: T7, human EGFR (aa 1 - 1,210), on cells; experiment: flow cytometry, FaDu cells; remark: listed apart in the source
[14] = target: T7, human EGFR (aa 1 - 1,210), on cells; experiment: flow cytometry, LIM1215 cells
[15] = target: T7, human EGFR (aa 1 - 1,210), on cells; experiment: flow cytometry, DiFi cells; remark: listed apart in the source
[16] = target: T1, EGFR-His fusion protein comprising the …; experiment: ELISA, coated human EGFR
[17] = target: T9, EGFR-His fusion protein comprising the extracellular domain of cynomolgus monkey EGFR (aa 1 - 645) (cynomolgus monkey, UniProt P55245 25-645 (rhesus entry)); experiment: ELISA, coated cynomolgus monkey EGFR-His
T9 construct: Bought protein; also called Sino Biological SIN-90285-C08H-50

[18] = target: T1, EGFR-His fusion protein comprising the …; experiment: ELISA, coated human EGFR-His
[19] = target: T2, EGFR-moIgG2a-Fc fusion protein …; experiment: ELISA, coated EGFR-moIgG2a-Fc; remark: listed apart in the source
[20] = target: T7, human EGFR (aa 1 - 1,210), on cells; experiment: flow cytometry, FaDu cells; remark: listed apart in the source
[21] = target: T7, human EGFR (aa 1 - 1,210), on cells; experiment: cell-based or functional assay
[22] = target: T7, human EGFR (aa 1 - 1,210), on cells; experiment: flow cytometry, LIM1215 cells; remark: listed apart in the source
CD3 on Jurkat cells = target: T10, CD3 on Jurkat cells (human, UniProt P07766 23-207); experiment: flow cytometry, Jurkat cells
T10 construct: whole, on cells; also called CD3-expressing Jurkat

B1: IgG YU250-H10 wt (parental antibody of Example 5) (antibody)
light: QSVLTQPPSVSGAPGQRVTISCSGGSSNVGRNGVNWFQHLPEKAPKLLIYYDAFLSSGVSDRFSGSKSGTSASLAIRGLQSDDEADYYCAAWDDSLYSWVFGGGTNLTVLGQPKAAPSVTLFPPSSEELQANKATLVCLISDFYPGAVTVAWKADSSPVKAGVETTTPSKQSNNKYAASSYLSLTPEQWKSHRSYSCQVTHEGSTVEKTVAPTECS
heavy: not shown
notes: kept as a molecule of its own; Roles inferred
EC50 [1]: 0.49 nM

B2: IgG YU250-H10 variant VL N126K (antibody)
light: B1 light with N106K
heavy: not shown
notes: Potential glycosylation site in VL deleted (N126K); Roles inferred; also called VL N1216K
EC50 [1]: 0.53 nM

B4: IgG1 MKU011-A7 (antibody, V domains shown)
VH: QVQLVQSGGGVVQPGGSLRLSCAASGFTFSSYGMHWVRQAPGKGLEWVAFIRYDGSNKYYADSVKGRFTISRDNSKNTLYLQMNSLRAEDTAVYYCAKDGNSGYDSMDYWGQGTLVTVSS
VL: QPVLTQSPSASGTPGQRVTISCSGVSSNIGRNYVYWYQQFPGTAPKLLIYATHQRPSGVPDRFSGSKSGTSASLAISGLRSEDEANYYCAAWDDGVTGWVFGGGTKLTVLG
notes: Fully human IgG1; also called IgG MKU011-A7; IgG MKU-011-A07
EC50 [2]: 0.32 nM | EC50 [8]: 0.35 nM | EC50 [9]: 0.81 nM | EC50 [10]: 0.19 nM

B5: Fab-His YU250-A02 (Fab, V domains shown)
VH: B4 VH with V5Q, Q6E
VL: QSVLTQPPSVSGAPGQRVTISCSGGSSNVGRNGVNWFQHLPEKAPKLLIYYDAFLSSGVSDRFSGSKSGTSASLAIRGLQSEDEADYYCASWDDSLTGWVFGGGTKLTVLG
notes: Roles inferred as for IgG YU250-A02; also called Fab YU250-A02
Kd [3]: < 10000 nM | Kd [4]: < 10000 nM | Kd [5]: < 10000 nM | Kd [6]: < 100 nM | Kd [7]: < 10000 nM

B6: IgG1 YU250-A02 (antibody, V domains shown)
VH: B4 VH with V5Q, Q6E
VL: B5 VL
notes: also called IgG YU250-A02
EC50 [11]: 0.38 nM | EC50 [12]: 1.24 nM | EC50 [13]: 0.26 nM | EC50 [14]: 0.09 nM | EC50 [8]: 0.23 nM | EC50 [15]: 0.64 nM | EC50 [16]: 0.59 nM | EC50 [9]: 0.64 nM | EC50 [17]: 0.69 nM | EC50 [18]: 0.36 nM | EC50 [10]: 0.16 nM

B7: IgG1 YU250-H10 (antibody)
light: B1 light
heavy: not shown
notes: also called IgG YU250-H10
EC50 [11]: 0.45 nM | EC50 [12]: 1.56 nM | EC50 [13]: 0.27 nM | EC50 [2]: 0.27 nM | EC50 [14]: 0.09 nM | EC50 [8]: 0.29 nM | EC50 [15]: 0.73 nM | EC50 [16]: 0.78 nM | EC50 [9]: 0.78 nM | EC50 [17]: 0.58 nM | EC50 [18]: 0.28 nM | EC50 [10]: 0.19 nM

B10: scDb YU250-H10 x huU3 (bispecific antibody)
chain: QVQLVQSGGGVVQPGGSLRLSCAASGFTFSSYGMHWVRQAPGKGLEWVAFIRYDGSNKYYADSVKGRFTISRDNSKNTLYLQMNSLRAEDTAVYYCAKDGNSGYDSMDYWGQGTLVTVSSGGGGSDIQMTQSPSSLSASVGDRVTITCRASQDIRNYLNWYQQKPGKAPKLLIYYTSRLHSGVPSRFSGSGSGTDFTFTISSLQPEDIATYYCQQGNTLPWTFGQGTKLEIKRGGGGSGGGGSGGGGSQVQLVQSGAEVKKPGSSVKVSCKASGGTFSGYTMNWVRQAPGQGLEWMGLINPYKGVSTYNGKFKDRVTITADKSTSTAYMELSSLRSEDTAVYYCARSGYYGDSDWYFDVWGQGTLVTVSSGGGGSQSVLTQPPSVSGAPGQRVTISCSGGSSNVGRNGVNWFQHLPEKAPKLLIYYDAFLSSGVSDRFSGSKSGTSASLAIRGLQSDDEADYYCAAWDDSLYSWVFGGGTNLTVLAAAGGSGGGGSGGGTGGGGSLHHHHHH
notes: Bivalent single-chain diabody; detected with an anti-His antibody; also called bispecific EGFRxCD3 scDb
EC50 [20]: 1.68 nM | IC50 for cytotoxicity, FaDu + PBMCs (E:T 10:1) [21]: 0.0181 nM | IC50 for cytotoxicity, LIM1215 + PBMCs (E:T 10:1) [21]: 0.0602 nM | EC50 [22]: 1.02 nM | EC50 (CD3 on Jurkat cells): 7.56 nM

The next lines start with results.

EC50 [2]: 2.79 nM | Kd [3]: < 10000 nM | Kd [4]: < 10000 nM | Kd [5]: < 10000 nM | Kd [6]: < 100 nM | Kd [7]: < 10000 nM
B3: Fab-His MKU011-A7 (Fab, V domains shown)
VH: B4 VH
VL: B4 VL
notes: also called Fab MKU011-A7; His-tagged anti-EGFR Fab MKU011-A7

EC50 [2]: 0.59 nM | fold increased binding against Fab-His MKU011-A7 [19]: 4.7 fold | Kd [3]: < 10000 nM | Kd [4]: < 10000 nM | Kd [5]: < 10000 nM | Kd [6]: < 100 nM | Kd [7]: < 10000 nM
B8: Fab-His YU250-H10 (Fab, V domains shown)
VH: B4 VH
VL: B5 VL with E82D, S91A, T97Y, G98S, K106N
notes: T0001 gives '6 and 8' and '9 and 11' for Fab-His YU250-H10; Roles inferred; also called Fab YU250-H10

EC50 [20]: 0.74 nM | EC50 [22]: 0.31 nM | EC50 (CD3 on Jurkat cells): > 10 nM
B9: scDb-YU250-H10 x huU3-scFv-YU250-H10 (bispecific antibody)
chain: QVQLVQSGGGVVQPGGSLRLSCAASGFTFSSYGMHWVRQAPGKGLEWVAFIRYDGSNKYYADSVKGRFTISRDNSKNTLYLQMNSLRAEDTAVYYCAKDGNSGYDSMDYWGQGTLVTVSSGGGGSDIQMTQSPSSLSASVGDRVTITCRASQDIRNYLNWYQQKPGKAPKLLIYYTSRLHSGVPSRFSGSGSGTDFTFTISSLQPEDIATYYCQQGNTLPWTFGQGTKLEIKRGGGGSGGGGSGGGGSQVQLVQSGAEVKKPGSSVKVSCKASGGTFSGYTMNWVRQAPGQGLEWMGLINPYKGVSTYNGKFKDRVTITADKSTSTAYMELSSLRSEDTAVYYCARSGYYGDSDWYFDVWGQGTLVTVSSGGGGSQSVLTQPPSVSGAPGQRVTISCSGGSSNVGRNGVNWFQHLPEKAPKLLIYYDAFLSSGVSDRFSGSKSGTSASLAIRGLQSDDEADYYCAAWDDSLYSWVFGGGTNLTVLAAAGGSGGGGSGGGTQVQLVQSGGGVVQPGGSLRLSCAASGFTFSSYGMHWVRQAPGKGLEWVAFIRYDGSNKYYADSVKGRFTISRDNSKNTLYLQMNSLRAEDTAVYYCAKDGNSGYDSMDYWGQGTLVTVSSGGGGSGGGGSGGGGSQSVLTQPPSVSGAPGQRVTISCSGGSSNVGRNGVNWFQHLPEKAPKLLIYYDAFLSSGVSDRFSGSKSGTSASLAIRGLQSDDEADYYCAAWDDSLYSWVFGGGTNLTVLGSLHHHHHH
notes: Trivalent; detected with an anti-His antibody; also called scDb-scFv; bispecific trivalent EGFRxCD3 scDb-scFv
IC50 for cytotoxicity, FaDu + PBMCs (E:T 10:1) [21]: 0.0044 nM | IC50 for cytotoxicity, LIM1215 + PBMCs (E:T 10:1) [21]: 0.004 nM
